{"source": "paper PMC10155992", "key": {"[1]": {"target": "VP12, major outer capsid protein of mud crab reovirus (MCRV) (mud crab reovirus (MCRV))", "assay": "cryo-EM structure; single-particle cryo-EM of purified MCRV virions, quiescent (qMCRV) and transcribing (tMCRV), in PBS; icosahedral, C1 and D5 reconstructions; atomic models built de novo"}, "[2]": {"target": "VP3, inner capsid protein of mud crab reovirus (MCRV) (mud crab reovirus (MCRV))", "assay": "cryo-EM structure; single-particle cryo-EM of purified MCRV virions, quiescent (qMCRV) and transcribing (tMCRV), in PBS; icosahedral, C1 and D5 reconstructions; atomic models built de novo"}}}
{"substance": "VP12, major outer capsid protein of mud crab reovirus (MCRV) (natural protein)", "values": [{"measurement": "stoichiometry N", "setting": "[1]", "result": 3}]}
{"substance": "VP3, inner capsid protein of mud crab reovirus (MCRV) (natural protein)", "values": [{"measurement": "stoichiometry N", "setting": "[2]", "result": 2}]}
